Measured values from paper PMC8134462, “Cross-reactive serum and memory B-cell responses to spike protein in SARS-CoV-2 and endemic coronavirus infection” (Nature Communications, 2021).

B1: second SARS-CoV-2/HCoV-HKU1 cross-reactive mAb from the CC40 donor (its name is not printed in the text) (antibody, V domains shown)
VH: EVQLVESGGGVVQPGRSLRLSCVASGFTFSNYGMHWVRQAPGKGLEWVAVMSYDGSVTYYGDSVRGRFTISRDNSKNTLYLQMSSLRTDDTGVYYCAKGQPLDDIWGLGTLVTVSS
VL: EIVMTQSPLSLPVSLGQSASISCRSSQSLVHTDGITYLSWFQQRPGQSPRRLLYKVSNRDSGVPDRFSGSGSGTDFTLKISRVEAEDVGVYYCLQGTYWPWTFGQGTKVEIK
notes: also called one of the two cross-reactive mAbs from the CC40 donor
B2: mAb CC9.2 (IgG) (antibody, V domains shown)
VH: EVQLVESGGGLVQPGRSLRLSCVAPGFTLGGYGMHWVRQAPGKGLEWVGLISYDGSVQKYGSSVKGRFTISKDNSKNTLYLEMNSLRADDTAVYFCVKGASLGDNWGQGTLVTVSS
VL: EIVMTQSPLSLPVTLGQPASISCRSSQSLVYSDGDTYMSWFHQRPGQSPRRLIYKVSNRDFGVPDRFSGSGSGTDFTLKISRVEAEDVGVYYCMQGTHWPYTFGPGTKVEIK
B3: mAb CC9.1 (antibody, V domains shown)
VH: EVQLVESGGGLVQPGRSLRLSCVAPGFTLGGYGMHWVRQAPGKGLEWVGLISYDGSVQKYGSSVKGRFTISKDNSKNTLYLEMNSLRADDTAVYFCVKGASLGDNWGQGTLVTVSS
VL: EIVMTQSPLSLPVTLGQPASISCRSSQSLVYSDGDTYMSWFHQRPGQSPRRLIYKVSNRDSGVPDRFSGSGSGTDFTLKISRVEAEDVGVYYCMQGTHWPYTFGPGTKVEIK

Target: T1, SARS-CoV-2 soluble S ectodomain protein (residue 1-1208), prefusion-stabilized, with T4 fibritin … (SARS-CoV-2, Wuhan-Hu-1 (MN908947), UniProt P0DTC2, K986/V987 replaced by proline residues)
T1 construct: also called SARS-CoV-2 S-protein; whole S protein
Test: BLI
Details: both partners purified

Q: Does B1 bind?
A: Result: binds

Q: Does B2 bind?
A: Result: binds

Q: Does B3 bind?
A: Result: binds
